Our source for the Kd values is PMC4456664 (2015).

This test deals with BSA (Bos taurus, UniProt P02769). Put plainly: ITC. A general note: Isothermal titration calorimetry measures the heat released or taken up as one component is titrated into another.
BSA, sequence (P02769 25-607): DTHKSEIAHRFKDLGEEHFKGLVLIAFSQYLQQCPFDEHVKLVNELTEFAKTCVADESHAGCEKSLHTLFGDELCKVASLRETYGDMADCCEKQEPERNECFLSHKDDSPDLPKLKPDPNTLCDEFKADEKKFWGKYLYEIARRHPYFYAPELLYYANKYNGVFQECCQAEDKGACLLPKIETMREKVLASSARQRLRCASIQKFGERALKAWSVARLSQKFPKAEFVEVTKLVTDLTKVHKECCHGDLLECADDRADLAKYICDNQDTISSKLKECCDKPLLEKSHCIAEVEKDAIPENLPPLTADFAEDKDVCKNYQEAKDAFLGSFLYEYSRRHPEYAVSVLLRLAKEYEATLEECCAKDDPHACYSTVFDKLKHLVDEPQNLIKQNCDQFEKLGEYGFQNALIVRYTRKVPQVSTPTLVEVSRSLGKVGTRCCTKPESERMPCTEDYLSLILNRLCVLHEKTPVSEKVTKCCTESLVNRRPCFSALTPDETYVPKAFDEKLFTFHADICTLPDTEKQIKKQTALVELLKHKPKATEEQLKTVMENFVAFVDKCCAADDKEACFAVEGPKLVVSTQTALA

B1: PYL10 (protein)
chain: MNGDETKKVESEYIKKHHRHELVESQCSSTLVKHIKAPLHLVWSIVRRFDEPQKYKPFISRCVVQGKKLEVGSVREVDLKSGLPATKSTEVLEILDDNEHILGIRIVGGDHRLKNYSSTISLHSETIDGKTGTLAIESFVVDVPEGNTKEETCFFVEALIQCNLNSLADVTERLQAESMEKKI
For the molecule B1, binding was put at a Kd of 3 µM.
